Experimental data taken from US20240116985A1 (published 2024).
Starred links: 1 amine or outer side, 2 acyl side, 3 side chain; linkers in the order of their positions; H or OH if unused. Positions of bridges follow the written chain, without caps; N, C: chain ends. Non-standard residues stand in square brackets, D forms with d. Primed or numbered codes have the meaning given here. PyrS3″ = (S)-3-amino-1-((hex-5-en-1-yloxy)carbonyl)pyrrolidine-3-carboxylic acid (stapling residue), C=CCCCCOC(=O)N1CC[C@@](N[*:1])(C(=O)[*:2])C1; SeN″ = (S)-5-(((allyloxy)carbonyl)(methyl)amino)-2-amino-2-methylpentanoic acid (stapling residue), C=CCOC(=O)N(C)CCC[C@](C)(N[*:1])C(=O)[*:2]; B5(16) = 2-amino-2-(pent-4-en-1-yl)hept-6-enoic acid = 2,2-bis(4-pentenyl)glycine (stitching residue), C=CCCCC(CCCC=C)(N[*:1])C(=O)[*:2]; B5(23) = 2-amino-2-(pent-4-en-1-yl)hept-6-enoic acid (2,2-bis(4-pentenyl)glycine), stitching residue, C=CCCCC(CCCC=C)(N[*:1])C(=O)[*:2]; B5(21) = 2-amino-2-(pent-4-en-1-yl)hept-6-enoic acid, bis(4-pentenyl)glycine (stitching residue), C=CCCCC(CCCC=C)(N[*:1])C(=O)[*:2]; B5(6) = 2-amino-2-(pent-4-en-1-yl)hept-6-enoic acid (bis(4-pentenyl)glycine), stitching residue, C=CCCCC(CCCC=C)(N[*:1])C(=O)[*:2]; Phe(3-F) = N[C@@H](Cc1cccc(F)c1)C(=O)O; Phe(4-F) = N[C@@H](Cc1ccc(F)cc1)C(=O)O; His(τ-Me) = Cn1cnc(C[C@H](N)C(=O)O)c1; Phe(2-F) = N[C@@H](Cc1ccccc1F)C(=O)O; Bta = N[C@@H](Cc1csc2ccccc12)C(=O)O; αAllylPro = C=CC[C@@]1(C(=O)O)CCCN1; S8 = C=CCCCCCC[C@](C)(N)C(=O)O

T1: full-length beta-Catenin (Uniprot ID P35222) (Homo sapiens (Human), UniProt P35222 2-781)
T1 construct: also called bCat; B-Catenin
T1 sequence: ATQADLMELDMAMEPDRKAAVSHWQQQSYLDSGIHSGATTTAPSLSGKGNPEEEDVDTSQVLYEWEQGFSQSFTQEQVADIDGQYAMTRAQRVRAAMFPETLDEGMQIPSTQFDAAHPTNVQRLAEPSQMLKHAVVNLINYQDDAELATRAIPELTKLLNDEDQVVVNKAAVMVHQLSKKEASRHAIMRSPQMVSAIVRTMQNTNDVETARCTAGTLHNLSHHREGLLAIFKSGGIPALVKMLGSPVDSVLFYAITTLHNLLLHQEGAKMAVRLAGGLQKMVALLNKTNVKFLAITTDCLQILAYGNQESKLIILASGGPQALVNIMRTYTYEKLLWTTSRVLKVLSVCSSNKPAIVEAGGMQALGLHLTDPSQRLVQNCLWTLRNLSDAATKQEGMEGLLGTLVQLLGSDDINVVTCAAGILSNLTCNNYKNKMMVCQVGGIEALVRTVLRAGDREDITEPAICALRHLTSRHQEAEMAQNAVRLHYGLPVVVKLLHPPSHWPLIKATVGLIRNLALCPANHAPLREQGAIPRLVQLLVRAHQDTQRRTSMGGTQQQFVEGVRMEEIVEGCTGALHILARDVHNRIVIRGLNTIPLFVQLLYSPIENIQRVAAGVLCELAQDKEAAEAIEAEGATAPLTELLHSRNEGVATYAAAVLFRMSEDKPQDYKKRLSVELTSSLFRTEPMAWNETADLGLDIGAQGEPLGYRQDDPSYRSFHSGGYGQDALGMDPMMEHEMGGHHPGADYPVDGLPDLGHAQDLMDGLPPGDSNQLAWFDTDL

T2: full-length beta-Catenin (Uniprot ID P35222) (Homo sapiens (Human), UniProt P35222 1-781)
T2 construct: also called bCat; B-Catenin
T2 sequence: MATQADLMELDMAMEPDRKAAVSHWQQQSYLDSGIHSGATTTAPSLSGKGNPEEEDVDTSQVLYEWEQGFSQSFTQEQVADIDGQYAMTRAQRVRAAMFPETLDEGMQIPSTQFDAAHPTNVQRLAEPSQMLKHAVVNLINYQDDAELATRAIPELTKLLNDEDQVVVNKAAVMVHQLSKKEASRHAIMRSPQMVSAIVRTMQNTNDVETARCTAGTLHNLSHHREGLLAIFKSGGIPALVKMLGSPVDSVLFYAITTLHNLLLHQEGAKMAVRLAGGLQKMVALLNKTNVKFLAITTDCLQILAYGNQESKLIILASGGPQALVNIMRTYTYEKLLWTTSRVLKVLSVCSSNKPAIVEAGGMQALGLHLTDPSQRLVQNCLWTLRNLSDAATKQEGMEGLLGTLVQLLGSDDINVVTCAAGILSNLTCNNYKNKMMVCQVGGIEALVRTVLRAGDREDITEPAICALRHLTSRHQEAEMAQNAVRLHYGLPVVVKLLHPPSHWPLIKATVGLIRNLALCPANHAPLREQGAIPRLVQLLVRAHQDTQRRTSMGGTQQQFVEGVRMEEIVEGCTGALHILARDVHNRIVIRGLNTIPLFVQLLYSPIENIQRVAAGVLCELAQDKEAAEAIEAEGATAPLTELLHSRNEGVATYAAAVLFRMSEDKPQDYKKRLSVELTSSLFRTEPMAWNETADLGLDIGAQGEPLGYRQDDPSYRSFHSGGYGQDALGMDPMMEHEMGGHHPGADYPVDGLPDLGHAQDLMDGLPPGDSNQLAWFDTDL


molecular target: T1, full-length beta-Catenin (Uniprot ID …); experiment: fluorescence polarization competition; 10 nM full-length beta-catenin + 10 nM 5FAM-TCF4(10-53) probe, peptide titrated
Description: The plate was incubated protected from light for 60 minutes at 20° C. prior to read. Reads were performed on a CLARIOstar plate reader (BMG Labtech) in duplicate, and data were fitted to a 1:1 binding model with hill slope using an in-house script. All provided concentrations are final concentrations.

Row | EC50 [nM] | Binder
1 | 105 | Ac-[αAllylPro]DA[B5(23)]DEAAFT[S8]F[Bta]Q-NH2 (staple 1-4, 4-11, Stapled (stitched) peptide) [I-423]
2 | 2230 | XDAXDHAAFVXFXQ (not fully specified; as printed: Ac-PL3-Asp-Ala-B5-Asp-His-Ala-Ala-Phe-Val-S8-3FF-BztA-Gln-NH2; N-terminal acetyl, C-terminal amide; staples PL3(1)-B5(4) and B5(4)-S8(11) by olefin metathesis, Stapled (stitched) peptide) [I-397]
3 | 3590 | Ac-[αAllylPro]DA[B5(16)]DHAAFQ[SeN″][Phe(3-F)][Bta]Q-NH2 (staple 1-4, 4-11; not fully specified; printed as Ac-PL3-Asp-Ala-B5-Asp-His-Ala-Ala-Phe-Gln-SeN-3FF-BztA-Gln-NH2, Stapled (stitched) peptide) [I-400]
4 | 2130 | Ac-[αAllylPro]DA[B5(23)]D[His(τ-Me)]AAFV[S8][Phe(3-F)][Bta]Q-NH2 (staple 1-4, 4-11, Stapled (stitched) peptide) [I-403]
5 | 2500 | XDAXDHAAFQXFXQ (not fully specified; as printed: Ac-PL3-Asp-Ala-B5-Asp-His-Ala-Ala-Phe-Gln-S8-3FF-BztA-Gln-NH2; N-terminal acetyl, C-terminal amide; staples PL3(1)-B5(4) and B5(4)-S8(11) by olefin metathesis, Stapled (stitched) peptide) [I-399]
6 | 2160 | Ac-[αAllylPro]DA[B5(16)]DHAAFV[SeN″][Phe(3-F)][Bta]Q-NH2 (staple 1-4, 4-11; not fully specified; printed as Ac-PL3-Asp-Ala-B5-Asp-His-Ala-Ala-Phe-Val-SeN-3FF-BztA-Gln-NH2, Stapled (stitched) peptide) [I-398]

molecular target: T2, full-length beta-Catenin (Uniprot ID …); experiment: fluorescence polarization competition; full-length beta-catenin, competitor 5FAM-TCF4(10-53) probe
Summary of the method: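 Data fitted to 1:1 binding model with hill slope from duplicate reads taken after 60 minutes at 20° C. in the dark.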

Row | Binder | IC50 [nM]
7 | Ac-[αAllylPro]DI[B5(6)]DDAAFN[S8]F[Bta]H-NH2 (staple 1-4, 4-11; also: staple isomer composition: earlier-eluting HPLC peak, Stapled peptide; earlier-eluting HPLC peak (staple isomer composition)) [I-469] | 27
8 | Ac-[αAllylPro]DA[B5(21)]DEAA[Phe(3-F)]N[S8]F[Bta]Q-NH2 (staple 1-4, 4-11, Stapled peptide composition) [I-454] | 125
9 | Ac-[αAllylPro]DA[B5(21)]DEAA[Phe(2-F)]N[S8]F[Bta]Q-NH2 (staple 1-4, 4-11, Stapled peptide composition) [I-453] | 1550
10 | Ac-[αAllylPro]DA[B5(21)]DEAA[Phe(4-F)]N[S8]F[Bta]Q-NH2 (staple 1-4, 4-11, Stapled peptide composition) [I-455] | 83.5

Further lines, results first:

Row | IC50 [nM] | Binder
11 | 27 | Ac-[αAllylPro]DI[B5(6)]DDAAFN[S8]F[Bta]Q-NH2 (staple 1-4, 4-11; also: staple isomer composition: later-eluting HPLC peak, Stapled peptide; later-eluting HPLC peak (staple isomer composition)) [I-468]
12 | 44 | Ac-[αAllylPro]DI[B5(6)]DDAAFN[S8]F[Bta]Q-NH2 (staple 1-4, 4-11; also: staple isomer composition: earlier-eluting HPLC peak, Stapled peptide; earlier-eluting HPLC peak (staple isomer composition)) [I-467]
13 | 92 | Ac-[αAllylPro]DA[B5(21)]DEAAFN[PyrS3″]F[Bta]Q-NH2 (staple 1-4, 4-11; also: earlier-eluting HPLC staple isomer, Stapled peptide; earlier-eluting HPLC peak (staple isomer composition)) [I-463]
14 | 57 | Ac-[αAllylPro]DA[B5(21)]DEAAFN[PyrS3″]F[Bta]Q-NH2 (staple 1-4, 4-11; not fully specified; printed as Ac-PL3-Asp-Ala-B5-Asp-Glu-Ala-Ala-Phe-Asn-PyrS3-Phe-BztA-Gln-NH2, Stapled peptide; later-eluting HPLC peak (staple isomer composition)) [I-464]
